Measurements: the DeepSol protein solubility set

Assay: soluble on expression in E. coli; label from the status in PepcDB or PDB records

Q: Which “soluble on expression in E. coli” value does the source give for “GPGSMKRSRRATQQEDVMRALKEGVQALSVSSALSTKDLVCRGDHARAIQQFLEDEKHHTMQIFGMPGTGKTATVNFALAQLVSRRGTKPTAVFLNGFVVQKSSDIYYTLHHHLTKARLGAVEPCPVAQCASRIEKRFRHGWGGKPPALCVIVVDEVDKILEKHSKGFFKVVDWLTLPYANCKLITISNSMELQLDAKTKSRLGVVNQLVFSSYGTQELREILVHRVGAIEPKLFADQAVNQLCTQTASHYGDVRRLLQSASAAICGVLMRMRDDAVDVSSTDGIITLREIHTVVRQIFHDRFVEFITTMRMPALFITVAVLGKETEALIRKREVDCRIPLERLLAITQQAQRKCMNVLRPINRAAFMEEIELLRQVSLIEVCIGEDRIPIRCVDELLDAKEEVFVLLLQPYQMVVDSCRLHDAFGATYGAALHL” here?
A: not soluble

Q: With “MGSDKIHHHHHHMRVLHFYKTYLSETVGGIEQVIFQLCESSGSWGIDNHVLTLSSDPHPPVVPFGGHVVHRARLDLQLASTGFSLSVFKQFRELAAEADVVNYHFPWPFMDLVHFLTGMNKPSVVTYHSDIIRQRVLLKLYRPLMSRFLHSVDRIVAASPNYFSTSDVLRQYREKTRVITYGLDKDGYPKPATQRLEHWREKLGPRFFLFVGVMRYYKGLHILLDALQGTDYPVVIVGAGPLQAELYAQAAALGLRNVHFLGRVDDEDKVALLQLSYAMVFPSHLRSEAFGISLLEGAMYGKPMISSEIGTGTSYINIHGETGLVVPPSQPAAFRQAMRWLWEHPQQAEEMGRNAEARYRQLFTAEEMGRRWSELYRELLEEKASSRYVKAAR” as the sequence, how does the “soluble on expression in E. coli” value read?
A: not soluble

Q: For “EVQLVESGGGLVQPGGSLRLSCAASGFNIKEYYMHWVRQAPGKGLEWVGLIDPEQGNTIYDPKFQDRATISADNSKNTAYLQMNSLRAEDTAVYYCARDTAAYFDYWGQGTLVTVSSASTKGPSVFPLAPSSKSTSGGTAALGCLVKDYFPEPVTVSWNSGALTSGVHTFPAVLQSSGLYSLSSVVTVPSSSLGTQTYICNVNHKPSNTKVDKKVEPKSCDKTHT”, which “soluble on expression in E. coli” value is on record?
A: soluble

Q: Which “soluble on expression in E. coli” value does the source give for “MSLIVRRYLKQDLCAVARLEVRSFEIGPYDKEYLREVLENASSISYIAQISDKIVGYIVAMPLNSQEIDIESIATDPDFRKRSIGTRLIARIENESKSLGYRNIILEVRKENIEAISFYSRLGFNIKEFIVNYYEEYYRGSRDAYRMVKSLSEGHHHHHH” here?
A: not soluble

Q: For “MTYPTFALDDITSLHESAQVEFKLARGRDGQGQLPEDIWATYSSFANTLGGEIILGVREDRGHFTIEGIPNPQPVLQEFWEIIDNPSRVSCNILAISDVQLIEIMNKKLIRIRVPLAPEHLKPVFIGTDVYTGSYFRVGDADMHASRKQVMQMLRRAHHCNKLFKARLEHHHHHH”, which “soluble on expression in E. coli” value is on record?
A: not soluble

Q: With “GPGSMNLELYVTLADLSRLPRGEPHDVKTLICRADTVRAPRPRELLSGRVFDISGQLLDTEYKGMPGETCVHVFFYDEWASAASFIERDDIVILKGFTVYDTPRVGDHDVEFPFFVTPIPHMAALRALQKGHKDDIMEVTVTADALETPNIRVMPKRLWGSYIANDMQCPRTNND” as the sequence, how does the “soluble on expression in E. coli” value read?
A: soluble

Q: For “GSDNESDEEVAGKKSFSAQEREYIRQGKEATAVVDQILAQEENWKFEKNNEYGDTVYTIEVPFHGKTFILKTFLPCPAELVYQEVILQPERMVLWNKTVTACQILQRVEDNTLISYDVSAGAAGGVVSPRDFVNVRRIERRRDRYLSSGIATSHSAKPPTHKYVRGENGPGGMIVLKSASNPRVCTFVWILNTDLKGRLPRYLIHQSLAATMFEFAFHLRQRISELGAR”, which “soluble on expression in E. coli” value is on record?
A: soluble

Q: With “ERRQGIAGVKGNQLQLMTESDDVMQALIRDIQLARHNIEMVFYIWQPGGMADQVAESLMAAARRGIHCRLMLDSAGSVAFFRSPWPELMRNAGIEVVEALKVNLMRVFLRRMDLRQHRKMIMIDNYIAYTGSMNMVDPRYFKQDAGVGQWIDLMARMEGPIATAMGIIYSCDWEIETGKRILPPPPDVNIMPFEQASGHTIHTIASGPGFPEDLIHQA” as the sequence, how does the “soluble on expression in E. coli” value read?
A: not soluble

Q: Which “soluble on expression in E. coli” value does the source give for “MGSDKIHHHHHHMIYFETERLICRAFERADLQAFTAYRADPEVARYQSWQDYQYQDALALFENLQQTPFGANGTWMQLALVCRQTQALVGDLALHFIDAQQVEIGFTLASEHQGKGLAREALQGLLVYLFERLGKHRVSAITDVKNRAAWGLLERLGFRREAHYRDNIFFKGSWGSEYGYGLLAREWRQAQVGEPLQEFRLIKRVAPLNDFLRLRQITGLTPRSREAAELGLPLSLFGVHLLAGDRVLAMGRVVGDGALNFELVDIAVDPEYQGRGLGSAIMSAIMAYLDEMAPKGAYITLMADVPALYLKFGFEYSRPASEGMYKLQA” here?
A: not soluble

Q: Which “soluble on expression in E. coli” value does the source give for “MRGGSSLDSFPGKGTLHTLEIENFKSYKGKHTIGPFTRFTAIIGPNGSGKSNLMDAISFVLGEKPSSLRVRKYADLIHGAPINKPVAKKCRVTMNYKYSDGKVKAFTRGVNNGTSEHLLDGQTVTSAAYSQEMESINIFIKARNFLVYQGAIENIAMKTPKERTQLFEELSRSHEFQAEYERLKVEMTKAEDDTQHNMNKRRGIAQEKREAKMEKDEAEKYQTMKNELAAKSTMLFLHQLFHCERTIDESKEEINAQKKTIASLEATRSKEEAKIAAVHQEHRKALREVQKMTRKLDQKETDLAEKQQNMLTLKVSVAHEHKKLEIAKKMLAAAESKAENNSTQLADLKKSKKELEKKKAAYEAEIQDMMQRGELNLSDEQVREYGQLKDQAQRESAMVQRELLMAEQVFEGDKSSLNHELRRQKEHQERVKAKEGDVRRIETQIATLAQRIKETEEETKILKADLKKIENDVVIDKSAAAEYNKELVAVVRQLSEASGDSAEGERNQRRTEALEGLKKNFPESVYGRLVDLCQPSHKRFNIATTKILQKHMNSIVCDTEETAAKAIVYLKDHRYPPETFLPNDALVVNPLNEKLREIKKPAGVKLVFDVINPQHQAARKALQFVCGNALVCESQEDAKQLAYGGGELKDRFKAVSMDGTLFQQSGVMSGGSADLRQKSKKWDEKVVKQLREKRNQLNEKIADLQKHRRRELEVESVRSKINGNEQRLAMMKRDLKNMREMQLERLQNELEGMTAEMNMLPPRISNCQEKLERSESTLKSLQTKSNEVADRIFADFCTRVGIASIRDYENREMRIKQEMEDKLRSFDDDIQKLAYEIDFVTEQDGNRKVEVEKEKVSQIDRQYKDMKKKEKTAAAALKEHTESMEQDKEVLEEKKALSHKLETEWNEVKKIAQVAMKDFTKAEKELLRLESLLTKKQYERHSLLHSVKLGQIALPLKSGSMADVEYEEDDGDIYFIIFVSLFPFKFQLISDDTASQSSQSATDGPSVSEEQIQREQHIKINYDSLPREYKDVDDDDGVRQMSNRLNVEIDELQKNVSKMNAPNLKANQRMAEVKEREAESTEELENARKKAKRIRQQFEKVKTDRYRRFQDFFDPVANTIDDIYKQLSRNTSAQAFLGADNMEEPYLDGIQYNCVAPGKRFRPMDNLSGGEKTIAALALLFAVHGRNPAPFFVLDEIDAALDNTNIGKVASYICESAREHMQIIVISLKEEFYNKADSLIGIFPYPAACTTSGVLTFDLTRFKQIGLNEMTENPPTPSIAT” here?
A: not soluble

Q: Which “soluble on expression in E. coli” value does the source give for “MTAFLPPNLLALFEARPPVQYLPPCQDLLVDKNAKRAPMTGVAQYIQLFEDPKDTPAKIPVVTKAEAKEEKRRQKDELLAYKVEQGIATWNPAENPRASEDPYRTLFVGRINYETSESKLRREFEAYGKIKKLTMVHDEAGKPRGYAFIEYSDKAEMHTAYKKADGIKVDGKRLVVDYERGRTQKTWLPRRLGGGKGDTRKTREAKSVIEEREIASGFGGGYEDRDRERSGSRDRRQDSYRNGGGNDRDRRESSGGFRDNRGGGGGFGGGGRDRFNDRSGGGGYGGDRDRGGDRGGDRGGSRYSTGGGSGGGYRSGGGSSGGGGGGRYGDRR” here?
A: not soluble

Q: Which “soluble on expression in E. coli” value does the source give for “SGRHERDAFDTLFDHAPDKLNVVKKTLITFVNKHLNKLNLEVTELETQFADGVYLVLLMGLLEGYFVPLHSFFLTPDSFEQKVLNVSFAFELMQDGGLEKPKPRPEDIVNCDLKSTLRVLYNLFTKYRNVE” here?
A: soluble

Q: For “MTIQPPSSSSATEFCQPDESTFLVGFNRVRRYGTTQSQSSPVTPCSYTIYQVQTDDTLERIALKHNCSVSSLVRANKLWSPSALFMKQFIRIPIFNSQQPNLKPSLQETQCKIVPATTERVDSSREEKSMKDILQRIDRNIKSFRKCDNPSSSAYDHI”, which “soluble on expression in E. coli” value is on record?
A: not soluble
